Measured values published in US20200362021A1 (PHANES THERAPEUTICS, published 2020).
No end group written: not given here. *: point of attachment. Biotin = O=C1N[C@H]2[C@H](CS[C@H]2CCCCC(=O)*)N1

T1: APL17-Biotin
T1 peptide: KFRRQRPRLSHKGPMPF-biotin

T2: Biotin-APL17
T2 peptide: Biotin-KFRRQRPRLSHKGPMPF

T3: pyr-apelin-13-biotin (pE-RPRLSHKGPMPF-biotin) (N-terminal pyroglutamate (pE); C-terminal biotin)
T3 construct: also called pyrAPL13-Biotin
T3 peptide: ERPRLSHKGPMPF


Experiments:
[1] = molecular target: T4, biotin-apelin-13 (biotin-…) (N-terminal biotin); test: SPR (Biacore) with biotin-apelin-13, humanized IgG1 mAb in HEK293 supernatant
T4 construct: also called Biotin-APL13
From the text: The rabbit anti-apelin mAb C8 was humanized to reduce the potential of immunogenicity when used in human patients. The sequences of the variable regions of the heavy and light chains (VH and VL) were compared with the human antibody sequences in the Protein Data Bank (PDB) database and a homology model was built by applying SWISS-modeling. The CDRs in both the heavy and light chains of the rabbit mAb were grafted into human frameworks that have the highest possibility of maintaining the proper structure likely required for antigen binding. Backmutations from human residue to rabbit residue were designed when necessary. The sequences of the humanized VH and VL regions are shown in Table 11 and Table 12, respectively. The humanized VH and VL regions were fused to human IgG1 heavy chain and kappa light chain constant regions, respectively, to generate humanized mAbs. Constructs corresponding to the mAb sequences were used for transient transfection in HEK 293 cells and the supernatants were analyzed for the affinity of each humanized mAb for apelin.

APL17-Biotin = molecular target: T1, APL17-Biotin; test: ELISA, peptide on neutravidin plate, mAb 200 ng/ml, A405
Protocol: (§1) FIGS. 1A-1C show binding of anti-apelin mAbs to various biotinylated apelin peptides measured by ELISA. Biotinylated apelin peptides were immobilized on ELISA plates coated with neutravidin and purified recombinant rabbit anti-apelin mAbs were added for binding to the peptides on the plates. The binding was detected by adding a goat anti-rabbit IgG Fc-conjugated to alkaline phosphatase and PNPP substrate, and measured as the absorbance at 405 nm.
(§2) For the binding assay, neutravidin in carbonate coating buffer was coated on high binding ELISA plates at 1 μg/ml overnight. Peptides were added at 4 μg/ml after the plates were blocked with 1% BSA in TBS. After incubation of the plates at room temperature for 60 minutes, the plates were washed and then purified recombinant rabbit antibodies were added at 200 ng/ml. Following rabbit antibody binding to the peptides on the plates at room temperature for 90 minutes, goat anti-rabbit IgG Fc-conjugated to alkaline phosphatase was added, and antibody-antigen binding was detected by adding PNPP substrate and reading absorbance of ELISA plates at 405 nm. Each mAb was assayed in duplicate.

Biotin-APL17 = molecular target: T2, Biotin-APL17; test: as above
Protocol: as §1, §2

[2] = molecular target: T4, biotin-apelin-13 (biotin-…); test: SPR (Biacore), biotin-apelin-13 on streptavidin CM5 chip, mAb at 12.5-100 nM
Protocol: (§3) Anti-apelin mAbs at four different concentrations (12.5 nM, 25 nM, 50 nM and 100 nM) were captured on the chip surface. The on- and off-rate for antibody-antigen binding were measured, curve fitted and calculated.

[3] = molecular target: T3, pyr-apelin-13-biotin …; test: SPR (Biacore), pyr-apelin-13-biotin on streptavidin chip
Protocol: as §3

[4] = molecular target: T5, apelin-13-biotin (…-biotin) (C-terminal biotin); test: SPR (Biacore), apelin-13-biotin on streptavidin chip
T5 construct: also called APL13-Biotin
Protocol: as §3

[5] = molecular target: T3, pyr-apelin-13-biotin …; test: ELISA, peptide on neutravidin plate, mAb 200 ng/ml, A405
Protocol: as §1, §2

Binder	Kd [1]	binding result (APL17-Biotin)	binding result (Biotin-APL17)	Kd [2]	Kd [3]	Kd [4]	binding result [5]
humanized anti-apelin mAb A11 (antibody, V domains shown, humanized from C8; tested as HEK293 supernatant) VH: QSLEESGGGLVQPGGSLRLSCAVSGIDLYSNRMSWVRQAPGKGLEWVSSIGSSPWYASWAQGRFTISRDNSNTLYLQMNSLTAEDTAVYYCAKGGYRPGASVWGQGTLVTVSS VL: DIQLTQSPSSLSASVGDRVTITCQSSQSIYDNNDLAWYQQKPGKTPKRLIYLASSLDSGVPSRFSGSGSGTDFTLTISSLQPEDVATYYCAGGYSGDIYTFGGGTKVEIK	0.126 pM	–	–	–	–	–	–
humanized anti-apelin mAb A21 (antibody, V domains shown, humanized from C8; tested as HEK293 supernatant) VH: QSLEESGGGLVQPGGSLRLSCAVSGIDLYSNRMSWVRQAPGKGLEWVSSIGSSPWYASWAQGRFTISRDNSNTVYLQMNSLTAEDTATYFCAKGGYRPGASVWGQGTLVTVSS VL: DIQLTQSPSSLSASVGDRVTITCQSSQSIYDNNDLAWYQQKPGKTPKRLIYLASSLDSGVPSRFSGSGSGTDFTLTISSLQPEDVATYYCAGGYSGDIYTFGGGTKVEIK	0.00165 pM	–	–	–	–	–	–
humanized anti-apelin mAb A41 (antibody, V domains shown, humanized from C8; tested as HEK293 supernatant) VH: QSLEESGGGLVQPGGSLRLSCTVSGIDLYSNRMSWVRQAPGKGLEWVGSIGSSPWYASWAQGRFTISRDNSNTVYLKMNSPTAEDTATYFCAKGGYRPGASVWGQGTLVTVSS VL: DIQLTQSPSSLSASVGDRVTITCQSSQSIYDNNDLAWYQQKPGKTPKRLIYLASSLDSGVPSRFSGSGSGTDFTLTISSLQPEDVATYYCAGGYSGDIYTFGGGTKVEIK	0.067 pM	–	–	–	–	–	–
anti-apelin mAb C4 (antibody, V domains shown, recombinant rabbit IgG made in HEK293 cells) VH: LEQSGGGAEGGLVKPGGSLELCCKASGFTLSSSYWICWVRQAPGKGLEWIGCIHYGSSGTAYYASWVNGRFTLSRDIDQSTGCLQLNSLTAADTAMYYCARFLSDMYYYNLWGPGTLVTVSS VL: QVLTQTPASVSAAVGGTVTINCQASQSIYNNNQLSWYQQKPGQPPKLLIYYASTLASGVSSRFKGSGSGTQFTLTISGVQCDDAATYYCQGQFNCRSADCHAFGGGTEVVVK	–	binds	binds	4010 pM	–	–	–
anti-apelin mAb C9 (antibody, V domains shown, recombinant rabbit IgG made in HEK293 cells) VH: QEQLEESGGDLVKPEGSLTLTCTASGFSFSSSYWICWVRQAPGKGLEWIACIYQSGDGRTWYASWAEGRFTISKTSPTTVTLQMASLTAADTATYFCARCPHNTYSHFDLWGPSTLVTVSS VL: DIVMTQTPASVEAAVGGTVTIKCQASQSINSWLSWYQQKPGQPPKPLIYGASNLASGVPSRFKGSGSGTQFTLTISDLECADAATYSCLGYYYSSYNSVGFWAFGGGTEVVVK	–	binds	binds	14800 pM	–	–	–
anti-apelin mAb C11 (antibody, V domains shown, recombinant rabbit IgG made in HEK293 cells) VH: QSLEESGGRLVSPGGSLTLTCTVSGIDLSSHAMDWVRQAPGKGLEWIGVIAPNDATYYPTWARGRFTISKTSTTVGLKMTRLTTEDTATYFCAAYPIDAGANVWGPGTLVTVSS VL: DPMLTQTASPVSAHVGGTVTINCQSSESVDYNNQLSWYQQKPGQPPKRLMYYVSTLDSGVPSRFKGSGSGTQFSLTISDLECDDAGTYYCQGGYISNLYPFGGGTEVVVK	–	binds	binds	–	0.141 pM	39.3 pM	–
anti-apelin mAb C14 (antibody, V domains shown, recombinant rabbit IgG made in HEK293 cells) VH: QSPEESGGRLVTPGGSLTLTCKISGVDLSNYAMDWVRQAPGKGLEWIGVIAPNDATYYPTWARGRLTISKTSTTVDLKMTRLTTEDTATYFCAAYPIDVGANVWGPGTLVTVSS VL: DPMLTQTASPVSAAVGGTVTINCQSSESVDYNNQLSWYQQKPGQPPKRLMYYVSTLDSGVPSRFKGSGSGTQFSLTISDLECDDAGTYYCQGGYISNLYPFGGGTEVVVK	–	binds	binds	–	6.49 pM	141 pM	–
anti-apelin mAb C16 (antibody, V domains shown, recombinant rabbit IgG made in HEK293 cells) VH: QSLEESGGRLVTPGGSLTLTCTVSGIDLNSYAMDWVRQAPGKGLEWIGVIAPNHYTYYPTWARGRFTISKTSTTVDLKMTRLTTEDTATYFCATYPIESGSNIWGPGTLVIVSS VL: DPVLTQTPSSVSAAVGGTVTIGCQSSESVGMNNQLSWYQQKPGQPPKRLMYYVSTLDSGVPSRFKGSGSGTQFSLTISDLECDDAGTYYCQGGYISNLYPFGGGTEVVVK	–	no binding (tested: 200 ng/ml)	no binding (tested: 200 ng/ml)	–	6140 pM	14300 pM	–
anti-apelin mAb C20 (antibody, V domains shown, recombinant rabbit IgG made in HEK293 cells) VH: QSLEESGGRLVTPGGSLTLTCTVSGIDLNNYAIDWVRQAPGKGLEWIGVIAPNHYTCYPTWARGRFTISKTSTTVDLKMTSLTTEDTATYFCAAYPIETGSNIWGPGTLVIVSS VL: DPMLTQTPSSVSAAVGGTVTISCQSSESVDMNNQLSWYQQKPGQPPKRLMYYVSTLDSGVPSRFKGSGSGIHFSLTISDLECADAGTYYCQGGYISNLYPFGGGTEVVVK	–	–	–	–	41.9 pM	202 pM	–
anti-apelin mAb C22 (antibody, V domains shown, recombinant rabbit IgG made in HEK293 cells) VH: QSLEESGGRLVTPGGSLTLTCTVSGIDLNNYAMDWVRQAPGKGLEWIGVIAPNHYTYYPTWARGRFTISKTSTTVDLKMTSLTTEDTATYFCATYPIETGSNIWGPGTLVIVSS VL: DPVLTQTPSSVSAAVGGTVTISCQSSESVDMNNQLSWYHQKSGQPPKRLMYYVSTLDSGVPSRFKGSGSGTQFTLTISGVQCDDAGTYYCQGGYISNLYPFGGGTEVVVK	–	binds	binds	–	0.155 pM	107 pM	–
C13 (antibody, V domains shown, recombinant rabbit mAb; also called anti-apelin mAb C13) VH: QSLEESGGRLAKPGETLTLTCTVSGIDLNSHAVDWVRQAPGKGLEWIGVIGPGGNTYYASWAKGRFTISKTSSTTVDLKMTSLTAEDTATFFCATYPIYSGDNIWGPGTLVTVSS VL: DPVLTQTPPSVSAAVGGTVTINCQSSESVDNNNQLSWYQQKVGQPPKRLMYYASTLDSGVPSRFKGGGSGTHFTLTITDLECDDAATYYCQGGTATNIYPFGGGTEVVVK	–	–	binds	–	–	–	binds
anti-apelin mAb C10 (antibody, V domains shown, recombinant rabbit IgG made in HEK293 cells) VH: QSLEESGGRLVTPGGSLTLTCTVSGIDLNSYAIDWVRQAPGKGLEWIGVIAPSGTTYYPTWAKGRFTISKTSTTVDLKVTGLTTEDTATYFCAAYPIDPGSNIWGPGTLVTVSS VL: DPVLTQTPSSVSAAVGGTATIGCQSSESVDYGNQLSWYQQKPGQPPKRLAYYVSILDAGVPSRFKGSGSGTQFTLTISDLECDDAATYYCQGGYISNLYPFGGGTEVVVQ	–	no binding (tested: 200 ng/ml)	no binding (tested: 200 ng/ml)	–	0.0482 pM	6.46 pM	–
anti-apelin mAb C12 (antibody, V domains shown, recombinant rabbit IgG made in HEK293 cells) VH: QSLEESGGRLVTPGGSLTLTCTVSGIDLSSYAIDWVRQAPGKGLEWIGVIAPSSTTYYPTWAKGRFTISKTSSTTVDLKVIGLTTEDTATYFCAAYPIDPGSNVWGPGTLVTVSS VL: DPVLTQTPSSVSAAVGGTVTIGCQSSESVDYGNQLSWYQQKPGQPPKRLTYYVSILDAGVPSRFKGSGSGTQFTLTISDLECDDAATYYCQGGYISNLYPFGGGTEVVVQ	–	no binding (tested: 200 ng/ml)	no binding (tested: 200 ng/ml)	–	0.0555 pM	3.55 pM	–
humanized anti-apelin mAb A33 (antibody, V domains shown, humanized from C8; tested as HEK293 supernatant) VH: QSLEESGGGLVQPGGSLRLSCAVSGIDLYSNRMSWVRQAPGKGLEWVGSIGSSPWYASWAQGRFTISRDNSNTVYLQMNSLTAEDTATYFCAKGGYRPGASVWGQGTLVTVSS VL: AQVLTQSPSSLSASVGDRVTIACQSSQSVYDNNDLAWYQQKAGQTPKRLIYLASSLDSGVPSRFSGSGSGTEFTLTISSLQCEDVATYYCAGGYSGDIYTFGGGTEVVVE	0.0143 pM	–	–	–	–	–	–
humanized anti-apelin mAb A43 (antibody, V domains shown, humanized from C8; tested as HEK293 supernatant) VH: QSLEESGGGLVQPGGSLRLSCTVSGIDLYSNRMSWVRQAPGKGLEWVGSIGSSPWYASWAQGRFTISRDNSNTVYLKMNSPTAEDTATYFCAKGGYRPGASVWGQGTLVTVSS VL: AQVLTQSPSSLSASVGDRVTIACQSSQSVYDNNDLAWYQQKAGQTPKRLIYLASSLDSGVPSRFSGSGSGTEFTLTISSLQCEDVATYYCAGGYSGDIYTFGGGTEVVVE	3.26 pM	–	–	–	–	–	–
